These results are taken from patent US8273705B2, “Conversion of apoptotic proteins” (The Burnham Institute, priority 2002, dated 2012).

The experiment has as its system LNCaP cells. The experiment in a line: Dominant-negative Bcl-2/1-90 in LNCaP cells. It counts as cell-based. As to the method: The next approach involved using a fragment of Bcl-2 consisting of the TR3 interaction domain (loop region) to identify whether it could act in a dominant-negative fashion to inhibit TR3 mitochondrial targeting in LNCaP cells. Cells transiently transfected with the GFP-Bcl-2/1-90 mutant comprising of the first 90 N-terminal amino acids were treated with TPA to induce expression of TR3 and mitochondrial targeting of the endogenous TR3. […] Thus, Bcl-2/1-90 inhibits TR3 mitochondrial targeting, probably by competing with endogenous Bcl-2 for binding to TR3.
The effect of inhibiting endogenous Bcl-2 expression on the TR3-dependent apoptosis in MGC80-3 cells was next analyzed. […] However, 3-Cl-AHPC-induced apoptosis was suppressed by more than half (about 60%) in Bcl-2 siRNA-transfected cells. Similar results were obtained in H460 lung cancer cells. […] Thus, Bcl-2 can manifest a pro-apoptotic phenotype in settings where TR3 is expressed and targets to mitochondria.

B1: Bcl-2/1-90: Bcl-2 mutant comprising the first 90 N-terminal amino acids (protein, UniProt P10415 1-90, looked up, fragment)
chain: MAHAGRTGYDNREIVMKYIHYKLSQRGYEWDAGDVGAAPPGAAPAPGIFSSQPGHTPHPAASRDPVARTSPLQTPAAPGAAAGPALSPVP
modifications: GFP fusion
notes: Bcl-2 mutant comprising the first 90 N-terminal amino acids
Regarding B1, for the setting “LNCaP cells”, the “TR3-dependent apoptosis induced by TPA and 3-Cl-AHPC” value is given as “suppressed TR3-dependent apoptosis”. For the same molecule, the “mitochondrial targeting of endogenous TR3” value (LNCaP cells treated with TPA) is recorded as “TR3 failed to target mitochondria”.
